One molecule from patent publication US9074002B2, “PTP1B inhibitors” (Cold Spring Harbor Laboratory, priority 2009, dated 2015) can be followed below.

Entries after “also recorded” stand apart in the source; their conditions may differ.

For experiment [1], the target named is T1, endogenous PTP1B under reducing conditions (Homo sapiens, UniProt P18031).
T1 construct: endogenous in cells; host or cells: 293T cells (transfected only with the scFv intrabody)
T1 sequence (P18031 1-435): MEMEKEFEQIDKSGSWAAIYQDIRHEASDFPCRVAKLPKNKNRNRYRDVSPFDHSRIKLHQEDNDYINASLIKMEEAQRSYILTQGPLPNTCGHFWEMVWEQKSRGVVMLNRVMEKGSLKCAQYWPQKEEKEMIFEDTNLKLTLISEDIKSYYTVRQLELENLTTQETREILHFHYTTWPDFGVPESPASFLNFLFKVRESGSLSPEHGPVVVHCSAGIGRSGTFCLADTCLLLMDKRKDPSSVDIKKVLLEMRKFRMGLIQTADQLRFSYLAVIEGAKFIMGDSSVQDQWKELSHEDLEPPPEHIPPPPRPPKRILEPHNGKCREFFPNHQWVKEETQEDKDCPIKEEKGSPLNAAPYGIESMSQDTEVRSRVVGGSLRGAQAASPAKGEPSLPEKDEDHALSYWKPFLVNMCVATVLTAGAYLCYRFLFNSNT
The experiment in a line: Intrabody interaction in 293T cells under reducing condition (NAC, TCEP) (Ni-NTA pull down / immunoprecipitation). It is filed as cell-based. Conditions: 20 mM NAC, lysis buffer with 2 mM TCEP, FIGS. 11, 12. The method, then: One of the positive candidate scFvs (scFv45) was cloned in pcDNA3.2/V5-GW/D-TOPO expression vector and transiently expressed in mammalian cells as stable intracellular antibody (aka intrabody) (FIG. 10). To detect PTP1B-OX and scFv45 interaction in mammalian cells, scFv45 was overexpressed in 293T cells as described herein (See Example 4) and 48 hours post transfection the cells were serum-starved for 16 hours in growth medium (DMEM, low glucose) without serum (FBS), then incubated with 1 mM H2O2 (in growth medium without serum) for 5 minutes at 37° C. or treated with 20 mM NAC (in growth medium without serum) for 1 hour at 37° C. Cells treated with H2O2 were washed twice with cold (4° C.) PBS and lysed in lysis buffer (25 mM HEPES, pH 7.4, 150 mM NaCl, 0.25% Deoxychloate, 1% TritonX-100, 25 mM NaF, 10 mM MgCl2, 1 mM EDTA, 10% Glycerol, 0.5 mM PMSF, 10 mM Benzamidine, protease inhibitor cocktail). Cells treated with NAC were lysed with lysis buffer containing 2 mM TCEP to ensure a post-lysis reducing environment. Interaction between PTP1B and intrabody45 were tested by pulling down the protein complex from 1 mg of total cell lysate with Ni-NTA agarose or by immunoprecipitating PTP with anti-PTP1B (FG6). For the pull down experiment, Ni-NTA agarose beads were incubated with the lysates (both oxidized and reduced) at 4° C. Protein complex bound to the Ni-NTA agarose beads was pulled down and washed three times; first with lysis buffer containing 20 mM imidazole followed by two more washes with wash buffer (PBS, pH 7.4, 20 mM imidazole, 0.05% BSA, 0.05% Tween-20 and protease inhibitors). Applicant used 20 mM imidazole in the wash buffer to reduce the non-specific binding of proteins with the Ni-NTA agarose beads. The complex was eluted with wash buffer containing 500 mM imidazole with gentle shaking at 4° C. and the eluate was mixed with SDS sample buffer with DTT. For the immunoprecipitation experiments, 1 mg of total cell lystates (both oxidized and reduced) was incubated with anti-PTP1B antibody (FG6) at 4° C. The interacting protein complex was immunoprecipitated after incubating the lysate-antibody mixture with protein A/G Sepharose at 4° C. After immunoprecipitation, Sepharose beads were washed three times; first with lysis buffer followed by two more washes with wash buffer (PBS, pH 7.4, 0.05% BSA, 0.05% Tween-20 and protease inhibitors). The Sepharose beads were then heated at 90° C. in 2×SDS sample buffer with DTT. Proteins from the pulled down or immunoprecipitated complex were separated by SDS-PAGE. PTP was detected with anti-PTP1B antibody (FG6) and the intrabodies were detected with anti-HA (3F10)-HRP antibody [anti-HA (3F10)-HRP, Roche] by immunoblotting.
In the initial in vitro phosphatase screening assay using reversibly oxidized (with H2O2) recombinant PTP1B, Applicant found four different PTP1B-OX specific scFvs (scFv45, scFv57, scFv64 and scFv106) from the initial pool of 12 different scFvs. […] Applicant has also shown that scFv45, expressed as an intrabody in mammalian cells, can bind to endogenous PTP1B-OX but not endogenous PTP under reducing conditions. Further assessment was carried out to identify additional PTP1B-OX-specific intrabodies. Additional scFvs have been subcloned in pcDNA3.2/V5-GW/D-TOPO mammalian expression vector (FIG. 10) from their respective phagemid constructs. […]

The subject of experiment [2] is phosphorylation of AKT activation loop at Threonine 308 (T308). The experiment in a line: AKT phosphorylation (T308) after insulin stimulation in cells overexpressing scFv45. The experiment is classed as cell-based. Particulars: cells overexpressing scFv45, insulin stimulated for different time periods; FIG. 13. The text has this: Applicant assessed the role of PTP1B-OX specific intrabody on the downstream readout of insulin signaling by following the phosphorylation (activation) status of AKT.

B1: scFv45: conformation-sensor scFv binding PTP1B-OX, SEQ ID NO: 26 and 78; expressed as intrabody (protein)
scFv: MKKTAIAIAVALAGFATVAQAALTQPSSVSANPGGTVKITCSGSSSAYGYGWYQQKSPGSAPVTVIYNNNKRPSNIPSRFSGSKSGSTGTLTITGVQAEDEAVYFCGSEDSSTDAIFGAGTTLTVLGQSSRSSTVTLDESGGGLQAPGGALSLVCKASGFTFSSYDMGWIRQAPGKGLEYVAGITDNGRYASYGSAVDGRATISRDNGQSSVRLQLNNLRAEDTGTYYCARDDGSGWTGNSIDAWGHGTEVIVSSTSGQAGQHHHHHHGAYPYDVPDYAS
In the case of B1, the “binding of intrabody to endogenous PTP1B under reducing conditions” value in experiment [1] was “not in the cells that were under reducing condition; also recorded: not in the presence of NAC and TCEP”. For the same molecule, the “AKT phosphorylation at residue Threonine 308 (T308)” value in experiment [2] was “enhanced and sustained AKT phosphorylation”.
